According to paper PMC3413117 (Nucleic Acids Research, 2012):

T1: LiBRCA2 (Leishmania infantum, UniProt A4HYJ9 1-1165)
T1 sequence: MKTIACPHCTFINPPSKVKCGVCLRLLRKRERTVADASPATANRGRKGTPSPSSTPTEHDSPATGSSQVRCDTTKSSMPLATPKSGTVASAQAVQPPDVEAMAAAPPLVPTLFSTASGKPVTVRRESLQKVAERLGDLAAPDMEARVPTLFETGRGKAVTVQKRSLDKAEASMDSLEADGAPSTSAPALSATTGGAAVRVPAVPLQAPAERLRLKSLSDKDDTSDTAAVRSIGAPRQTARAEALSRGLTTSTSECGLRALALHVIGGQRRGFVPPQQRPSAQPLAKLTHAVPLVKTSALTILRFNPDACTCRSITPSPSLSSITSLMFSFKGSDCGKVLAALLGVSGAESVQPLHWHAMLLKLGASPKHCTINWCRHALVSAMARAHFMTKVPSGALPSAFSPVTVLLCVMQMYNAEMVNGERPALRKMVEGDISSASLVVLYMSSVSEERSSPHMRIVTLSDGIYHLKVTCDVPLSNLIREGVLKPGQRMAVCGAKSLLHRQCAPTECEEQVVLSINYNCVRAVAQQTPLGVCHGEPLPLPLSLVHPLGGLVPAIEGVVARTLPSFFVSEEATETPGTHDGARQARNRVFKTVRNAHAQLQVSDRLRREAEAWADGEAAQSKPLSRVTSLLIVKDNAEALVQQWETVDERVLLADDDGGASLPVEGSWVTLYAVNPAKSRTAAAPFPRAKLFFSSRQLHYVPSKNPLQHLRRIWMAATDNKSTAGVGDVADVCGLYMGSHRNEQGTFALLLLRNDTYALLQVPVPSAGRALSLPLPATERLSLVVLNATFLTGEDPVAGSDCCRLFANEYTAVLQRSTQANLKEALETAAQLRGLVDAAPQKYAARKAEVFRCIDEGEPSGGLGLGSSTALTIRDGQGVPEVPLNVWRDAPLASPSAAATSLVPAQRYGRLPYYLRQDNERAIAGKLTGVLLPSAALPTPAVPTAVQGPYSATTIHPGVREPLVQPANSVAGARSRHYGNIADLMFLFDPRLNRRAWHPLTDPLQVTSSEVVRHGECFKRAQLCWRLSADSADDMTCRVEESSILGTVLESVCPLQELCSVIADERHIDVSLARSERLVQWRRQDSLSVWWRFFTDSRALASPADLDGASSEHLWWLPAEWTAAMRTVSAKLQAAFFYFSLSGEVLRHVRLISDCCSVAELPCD

T2: LiBRCA2-B1 (Leishmania infantum, UniProt A4HYJ9 1-122)
T2 sequence: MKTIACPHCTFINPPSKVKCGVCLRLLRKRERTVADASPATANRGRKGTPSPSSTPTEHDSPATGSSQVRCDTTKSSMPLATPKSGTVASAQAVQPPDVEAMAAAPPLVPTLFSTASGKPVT

B1: Leishmania infantum RAD51, purified (GST tag cleaved) (natural protein)
chain: MQTRSKAKGRRGRPSARPSEEVEVVESQPQEALQNEEQEPRQQQQQSTDMAEPNASGFRVIQILENYGVASSDIKKLMECGFYTVESAAYAPKKAILAVKGISENKAEKIMAECAKLVPMGFTSAVAYHEARKEIIMVTTGSREVDKLLGGGIETGSITELFGEFRTGKTQLCHTLCVTCQLPISQGGAEGMALYIDTEGTFRPERLVAVAERYKLDPEDVLANVACARAFNTDHQQQLLLQASAMMAENRFALIVVDSATALYRTDYSGRNELAARQMHLGKFLRSLHNLAEEYGVAVVVTNQVVANVDGSAQMFQADSKKPIGGHIMAHASTTRLSLRKGRGEQRIIKVYDSPCLAEAEAIFGIYDDGVGDARD
B2: Leishmania infantum BRCA2, purified LiBRCA2-His (GST tag cleaved) (natural protein)
chain: MKTIACPHCTFINPPSKVKCGVCLRLLRKRERTVADASPATANRGRKGTPSPSSTPTEHDSPATGSSQVRCDTTKSSMPLATPKSGTVASAQAVQPPDVEAMAAAPPLVPTLFSTASGKPVTVRRESLQKVAERLGDLAAPDMEARVPTLFETGRGKAVTVQKRSLDKAEASMDSLEADGAPSTSAPALSATTGGAAVRVPAVPLQAPAERLRLKSLSDKDDTSDTAAVRSIGAPRQTARAEALSRGLTTSTSECGLRALALHVIGGQRRGFVPPQQRPSAQPLAKLTHAVPLVKTSALTILRFNPDACTCRSITPSPSLSSITSLMFSFKGSDCGKVLAALLGVSGAESVQPLHWHAMLLKLGASPKHCTINWCRHALVSAMARAHFMTKVPSGALPSAFSPVTVLLCVMQMYNAEMVNGERPALRKMVEGDISSASLVVLYMSSVSEERSSPHMRIVTLSDGIYHLKVTCDVPLSNLIREGVLKPGQRMAVCGAKSLLHRQCAPTECEEQVVLSINYNCVRAVAQQTPLGVCHGEPLPLPLSLVHPLGGLVPAIEGVVARTLPSFFVSEEATETPGTHDGARQARNRVFKTVRNAHAQLQVSDRLRREAEAWADGEAAQSKPLSRVTSLLIVKDNAEALVQQWETVDERVLLADDDGGASLPVEGSWVTLYAVNPAKSRTAAAPFPRAKLFFSSRQLHYVPSKNPLQHLRRIWMAATDNKSTAGVGDVADVCGLYMGSHRNEQGTFALLLLRNDTYALLQVPVPSAGRALSLPLPATERLSLVVLNATFLTGEDPVAGSDCCRLFANEYTAVLQRSTQANLKEALETAAQLRGLVDAAPQKYAARKAEVFRCIDEGEPSGGLGLGSSTALTIRDGQGVPEVPLNVWRDAPLASPSAAATSLVPAQRYGRLPYYLRQDNERAIAGKLTGVLLPSAALPTPAVPTAVQGPYSATTIHPGVREPLVQPANSVAGARSRHYGNIADLMFLFDPRLNRRAWHPLTDPLQVTSSEVVRHGECFKRAQLCWRLSADSADDMTCRVEESSILGTVLESVCPLQELCSVIADERHIDVSLARSERLVQWRRQDSLSVWWRFFTDSRALASPADLDGASSEHLWWLPAEWTAAMRTVSAKLQAAFFYFSLSGEVLRHVRLISDCCSVAELPCD
B3: 60-mer ssDNA (JYM925) (ssDNA)
DNA: GGGTGAACCTGCAGGTGGGCAAAGATGTCCTAGCAATGTAATCGTCAAGCTTTATGCCGT
B4: 60-mer dsDNA (JYM925/JYM945) (dsDNA)
DNA 1: GGGTGAACCTGCAGGTGGGCAAAGATGTCCTAGCAATGTAATCGTCAAGCTTTATGCCGT
DNA 2: ACGGCATAAAGCTTGACGATTACATTGCTAGGACATCTTTGCCCACCTGCAGGTTCACCC

How the values were obtained:
SEC = target: the molecule itself; assay: SEC
LiBRCA2 = target: T1, LiBRCA2; assay: EMSA
LiBRCA2-B1 = target: T2, LiBRCA2-B1; assay: EMSA

Binder	binding result (SEC)	binding result (LiBRCA2)	binding result (LiBRCA2-B1)
B1	binds		
B2	binds		
B3		binds	no binding
B4		no binding	
